From patent publication US20190071490A1 (BETH ISRAEL DEACONESS MEDICAL CENTER, published 2019)
Positions count from the first letter of the chain named. One block for each binder: values may come before it.

How the values were obtained:
human α-CGRP 1-37 (WT) = target: T1, human α-CGRP 1-37 (WT) (human, C-terminal amide; N-terminal biotin when captured on the SA chip; 125I-labelled in the radioligand assay); assay: Biacore, 37°C, Fab over CGRP on SA chip
T1 construct: also called α-human
T1 peptide: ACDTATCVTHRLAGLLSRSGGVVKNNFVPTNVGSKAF
Method: (§1) Biacore assay for affinity determination. […] All Biacore assays were conducted in HBS-EP running buffer (10 mM HEPES pH 7.4, 150 mM NaCl, 3 mM EDTA, 0.005% v/v polysorbate P20). CGRP surfaces were prepared by diluting the N-biotinylated CGRP to a concentration of less than 0.001 mg/mL into HBS-EP buffer and injecting it across the SA sensor chip using variable contact times. […] Samples were typically injected for 1 minute at 100 μL/min and dissociation times of at least 10 minutes were allowed. […] An entire titration series (typically generated in duplicate) was fit globally to a 1:1 Langmuir binding model using the BIAevaluation program. This returned a unique pair of association and dissociation kinetic rate constants (respectively, kₒₙ and koff) for each binding interaction, whose ratio gave the equilibrium dissociation constant (KD=koff/kₒₙ). […]

rat α-CGRP (1-37) = target: T2, rat α-CGRP (1-37) (rat, C-terminal amide; N-terminal biotin when captured on the SA chip); assay: Biacore, 37°C, Fab over CGRP on SA chip
T2 construct: also called rat α (1-37); α-rat
T2 peptide: T1 peptide with A1S, D3N, N25D, K35E
Method: as §1

B1: G1 variant M1 Fab (Fab, V domains shown)
VH: EVQLVESGGGLVQPGGSLRLSCAASGFTFSNYWISWVRQAPGKGLEWVAEIRSESDASATHYAEAVKGRFTISRDNAKNSLYLQMNSLRAEDTAVYYCLLYFDYGLAIQNYWGQGTLVTVSS
VL: EIVLTQSPATLSLSPGERATLSCKASKRVTTYVSWYQQKPGQAPRLLIYGASNRYLGIPARFSGSGSGTDFTLTISSLEPEDFAVYYCSQSYNYPYTFGQGTKLEIK
notes: Fab; constant domains as m1
koff (human α-CGRP 1-37 (WT)): 0.000173 s⁻¹
koff (rat α-CGRP (1-37)): 0.0011 s⁻¹

B5: G1 variant M2 Fab (Fab, V domains shown)
VH: B1 VH with L99A, L100R
VL: B1 VL
notes: Fab; constant domains as m1
Kd (human α-CGRP 1-37 (WT)): 3 nM
koff (human α-CGRP 1-37 (WT)): 0.00031 s⁻¹
Kd (rat α-CGRP (1-37)): 58 nM
koff (rat α-CGRP (1-37)): 0.0026 s⁻¹

B6: G1 variant M3 Fab (Fab, V domains shown)
VH: B1 VH with L99A, L100S
VL: B1 VL
notes: Fab; constant domains as m1
Kd (human α-CGRP 1-37 (WT)): 1.7 nM
koff (human α-CGRP 1-37 (WT)): 0.00021 s⁻¹
Kd (rat α-CGRP (1-37)): 61 nM
koff (rat α-CGRP (1-37)): 0.002 s⁻¹

B8: G1 variant M27 Fab (Fab, V domains shown)
VH: B1 VH with L99T, L100V
VL: B1 VL with R28N, T30A
notes: Fab; constant domains as m1
Kd (human α-CGRP 1-37 (WT)): 2.23 nM
koff (human α-CGRP 1-37 (WT)): 0.000357 s⁻¹
Kd (rat α-CGRP (1-37)): 189 nM
koff (rat α-CGRP (1-37)): 0.00341 s⁻¹

B9: G1 variant M25 Fab (Fab, V domains shown)
VH: B1 VH with L99T, L100V
VL: B1 VL with R28N
notes: Fab; constant domains as m1
Kd (human α-CGRP 1-37 (WT)): 1.3 nM
koff (human α-CGRP 1-37 (WT)): 0.00014 s⁻¹
Kd (rat α-CGRP (1-37)): 76 nM
koff (rat α-CGRP (1-37)): 0.0014 s⁻¹

B11: G1 variant M30 Fab (Fab, V domains shown)
VH: B1 VH with E54K, A57E, L99T, L100V
VL: B1 VL with R28N, T30G
notes: Fab; constant domains as m1
Kd (human α-CGRP 1-37 (WT)): 3.69 nM
koff (human α-CGRP 1-37 (WT)): 0.00059 s⁻¹
Kd (rat α-CGRP (1-37)): 354 nM
koff (rat α-CGRP (1-37)): 0.00638 s⁻¹

B16: G1 variant M31 Fab (Fab, V domains shown)
VH: B1 VH with E54K, A57G, L99T, L100V
VL: B1 VL with R28N, T30G
notes: Fab; constant domains as m1
Kd (human α-CGRP 1-37 (WT)): 2.17 nM
koff (human α-CGRP 1-37 (WT)): 0.000347 s⁻¹
Kd (rat α-CGRP (1-37)): 201 nM
koff (rat α-CGRP (1-37)): 0.00361 s⁻¹

Next, values leading:

Kd (human α-CGRP 1-37 (WT)): 0.1 nM
koff (human α-CGRP 1-37 (WT)): 1.58e-05 s⁻¹
Kd (rat α-CGRP (1-37)): 63.9 nM
koff (rat α-CGRP (1-37)): 0.00115 s⁻¹
B2: G1 variant M15 Fab (Fab, V domains shown)
VH: B1 VH with L99T, L100P
VL: B1 VL
notes: Fab; constant domains as m1

Kd (human α-CGRP 1-37 (WT)): ≤ 0.06 nM
koff (human α-CGRP 1-37 (WT)): ≤ 1e-05 s⁻¹
B3: G1 variant M19 Fab (Fab, V domains shown)
VH: B1 VH with L99V, L100R
VL: B1 VL
notes: Fab; constant domains as m1

Kd (human α-CGRP 1-37 (WT)): 0.81 nM
koff (human α-CGRP 1-37 (WT)): 0.00013 s⁻¹
Kd (rat α-CGRP (1-37)): 44.4 nM
koff (rat α-CGRP (1-37)): 0.000799 s⁻¹
B4: G1 variant M23 Fab (Fab, V domains shown)
VH: B1 VH with L99T, L100V
VL: B1 VL with R28G
notes: Fab; constant domains as m1

Kd (human α-CGRP 1-37 (WT)): 1.16 nM
koff (human α-CGRP 1-37 (WT)): 0.000185 s⁻¹
Kd (rat α-CGRP (1-37)): 114 nM
koff (rat α-CGRP (1-37)): 0.00206 s⁻¹
B7: G1 variant M17 Fab (Fab, V domains shown)
VH: B1 VH with L99T, L100V
VL: B1 VL
notes: Fab; constant domains as m1

Kd (human α-CGRP 1-37 (WT)): 0.58 nM
koff (human α-CGRP 1-37 (WT)): 9.2e-05 s⁻¹
Kd (rat α-CGRP (1-37)): 41.4 nM
koff (rat α-CGRP (1-37)): 0.000745 s⁻¹
B10: G1 variant M8 Fab (Fab, V domains shown)
VH: B1 VH with L99N, L100G
VL: B1 VL
notes: Fab; constant domains as m1

Kd (human α-CGRP 1-37 (WT)): ≤ 0.06 nM
koff (human α-CGRP 1-37 (WT)): ≤ 1e-05 s⁻¹
B12: G1 variant M14 Fab (Fab, V domains shown)
VH: B1 VH with L99T, L100K
VL: B1 VL
notes: Fab; constant domains as m1

Kd (human α-CGRP 1-37 (WT)): 0.44 nM
koff (human α-CGRP 1-37 (WT)): 7.03e-05 s⁻¹
Kd (rat α-CGRP (1-37)): 67.8 nM
koff (rat α-CGRP (1-37)): 0.00122 s⁻¹
B13: G1 variant M18 Fab (Fab, V domains shown)
VH: B1 VH with L99V, L100G
VL: B1 VL
notes: Fab; constant domains as m1

Kd (human α-CGRP 1-37 (WT)): 0.93 nM
koff (human α-CGRP 1-37 (WT)): 0.000148 s⁻¹
Kd (rat α-CGRP (1-37)): 57.8 nM
koff (rat α-CGRP (1-37)): 0.00104 s⁻¹
B14: G1 variant M24 Fab (Fab, V domains shown)
VH: B1 VH with L99T, L100V
VL: B1 VL with R28L
notes: Fab; constant domains as m1

Kd (human α-CGRP 1-37 (WT)): 0.85 nM
koff (human α-CGRP 1-37 (WT)): 0.000136 s⁻¹
Kd (rat α-CGRP (1-37)): 80 nM
koff (rat α-CGRP (1-37)): 0.00144 s⁻¹
B15: G1 variant M20 Fab (Fab, V domains shown)
VH: B1 VH with L99R
VL: B1 VL with R28W
notes: Fab; constant domains as m1
